From patent US20120122128A1

Columns and labels:
[1] = biological target: T1, SNAP-25 peptide comprising amino acids 134-197 of SEQ ID NO: 5 (human); assay: SPR (BIAcore 3000), peptide amine-coupled to CM5 chip, antibody as analyte, 1:1 fit
[2] = biological target: T1, SNAP-25 peptide comprising amino acids …; assay: SPR, comparison of the KD values of Table 9
[3] = biological target: SNAP-25 peptide comprising amino acids 134-197 of SEQ ID NO: 5 (human); assay: SPR (BIAcore 3000), peptide amine-coupled to CM5 chip, antibody as analyte, 1:1 fit; remark: listed apart in the source
[4] = biological target: T1, SNAP-25 peptide comprising amino acids …; assay: SPR (BIAcore 3000), peptide amine-coupled to CM5 chip, antibody as analyte, 1:1 fit, first of two runs
[5] = biological target: T1, SNAP-25 peptide comprising amino acids …; assay: SPR (BIAcore 3000), peptide amine-coupled to CM5 chip, antibody as analyte, 1:1 fit, second independent run on another chip
[6] = biological target: T1, SNAP-25 peptide comprising amino acids …; assay: SPR, comparison of the Kd values of Table 9

B1: α-SNAP-25 monoclonal antibody 3C1A5 (antibody, V domains shown)
VH: VKLQESGAELVKPGASVKISCKASGYTFTDHSIHWVKQKPGQGLEWIGYLFPGNGNFEYNEKFKGKATLTADKSSSTVYMYLNSLTSEDSAVYFCKRMGYWGQGTTVTVSS
VL: DIKMTQSPSSMYASLGERVTITCKASQDIKSYLSWYQQKPWKSPKTLIYYATSLADGVPSRFSGSGSGQDYSLTISSLESDDTATYYCLQHGESPFTFGSGTKLEIKR
In the case of B1, the Kd [1] is reported as 1.33 nM, the koff [1] is reported as 0.000288 s⁻¹ and the kon [1] is reported as 217000 M⁻¹ s⁻¹.

B2: α-SNAP-25 monoclonal antibody 1D3B8 (antibody, V domains shown)
VH: VKLQESGAELVKPGASVKISCKASGYIFTDHALHWVRQKPEQGLEWIGYIFPGNGNIEYNEKFKGKATLTADKSSSTAYMQLNSLTSGDSAMYFCKKMDYWGQGTTVTVSS
VL: DVLMTQTPLSLPVSLGDQASISCRSSQSIVHSNGNTYLEWYLQKPGQSPKLLIYKVSNRFSGVPDRFSGSGSGTDFTLKISRVEAEDLGVYYCFQGSHVPPTFGAGTKLELKR
Work on B2 yielded a Kd [1] of 0.05 nM, a koff [1] of 5.78e-05 s⁻¹ and a kon [1] of 1.06e+06 M⁻¹ s⁻¹. The fold difference of equilibrium disassociation constant against MC-6050 and MC-6053 [2] was 10 fold.

B3: α-SNAP-25 monoclonal antibody 2C9B10 (antibody, V domains shown)
VH: VKLQESGAELVKPGASVKISCKASGYTFTDHSIHWVKQKPGQGLEWIGYLFPGNGNFEYNEKFKGKATLTADKSSSTAYMHLNSLTSEDSAVYFCKKMDYWGQGTTVTVSS
VL: DIQMTQSPASLSASVGETVTITCRTTENIYSYFVWSQQRQGKSPQLRVYNAKSLAEGVPSSFNVSVSGTQFSLKINSLQPEDFGTYHCQHHYGTPYTFGGGTRLEIRR
With B3 the Kd [3] was 27.1 nM, the koff [3] was 0.000311 s⁻¹ and the kon [3] was 11500 M⁻¹ s⁻¹.

B4: α-SNAP-25 monoclonal antibody 2E2A6 (antibody)
chain 1: QVQLQQSDAELVKPGASVKISCRASGYTFTDHSIHWVKQQPGQGLEWIGYIFPGNGNIEYNDKFKGKATLTADKSSGTAYMQLNSLTSEDSAVYFCKRMGYWGQGTSVTVSS
chain 2: DVLMTQTPLTLSVTIGQPASISCKSSQSLLYTNGKTYLTWLFQRPGQSPKRLIYLVSELDSGVPDRFSGSGSGTDFTLEITRVEAEDLGVYYCLQSAHFPFTFGSGTKLEIKR
With B4 the Kd [4] was 0.09 nM, the koff [4] was 0.000153 s⁻¹ and the kon [4] was 1.7e+06 M⁻¹ s⁻¹. It also gave a Kd [5] of 0.405 nM, a koff [5] of 6.74e-05 s⁻¹ and a kon [5] of 166000 M⁻¹ s⁻¹. It also gave a fold slower off rate against MC-6050 and MC-6053 [6] greater than 1 fold.
